Laboratory results reported in patent US20140120557A1 (published 2014).

Target: T1, 5C.C7 TCR (as measured by surface plasmon resonance) (mouse)
T1 construct: Kept apart from the TCR on cells because the SPR construct is not described
Assay: SPR

- Kd: 22.9 µM
- t1/2: 5.77 s
B1: MCC-I-Ek (peptide-MHC)
chain 1: ANERADLIAYLKQATK
chain 2: IKEEHTIIQAEFYLLPDKRGEFMFDFDGDEIFHVDIEKSETIWRLEEFAKFASFEAQGALANIAVDKANLDVMKERSNNTPDANVAPEVTVLSRSPVNLGEPNILICFIDKFSPPVVNVTWLRNGRPVTEGVSETVFLPRDDHLFRKFHYLTFLPSTDDFYDCEVDHWGLEEPLRKHWEFEEKTLLPETKE
chain 3: VRDSRPWFLEYCKSECHFYNGTQRVRLLVRYFYNLEENLRFDSDVGEFRAVTELGRPDAENWNSQPEFLEQKRAEVDTVCRHNYEIFDNFLVPRRVEPTVTVYPTKTQPLEHHNLLVCSVSDFYPGNIEVRWFRNGKEEKTGIVSTGLVRNGDWTFQTLVMLETVPQSGEVYTCQVEHPSLTDPVTVEWKAQSTSAQNK
